Sequences and labels used below:
T1: Smc6 (Walker B mutant E1048Q) (S. cerevisiae, UniProt Q12749 1-1114, E1048Q, BS3-crosslinked within the holo-complex)
T1 sequence: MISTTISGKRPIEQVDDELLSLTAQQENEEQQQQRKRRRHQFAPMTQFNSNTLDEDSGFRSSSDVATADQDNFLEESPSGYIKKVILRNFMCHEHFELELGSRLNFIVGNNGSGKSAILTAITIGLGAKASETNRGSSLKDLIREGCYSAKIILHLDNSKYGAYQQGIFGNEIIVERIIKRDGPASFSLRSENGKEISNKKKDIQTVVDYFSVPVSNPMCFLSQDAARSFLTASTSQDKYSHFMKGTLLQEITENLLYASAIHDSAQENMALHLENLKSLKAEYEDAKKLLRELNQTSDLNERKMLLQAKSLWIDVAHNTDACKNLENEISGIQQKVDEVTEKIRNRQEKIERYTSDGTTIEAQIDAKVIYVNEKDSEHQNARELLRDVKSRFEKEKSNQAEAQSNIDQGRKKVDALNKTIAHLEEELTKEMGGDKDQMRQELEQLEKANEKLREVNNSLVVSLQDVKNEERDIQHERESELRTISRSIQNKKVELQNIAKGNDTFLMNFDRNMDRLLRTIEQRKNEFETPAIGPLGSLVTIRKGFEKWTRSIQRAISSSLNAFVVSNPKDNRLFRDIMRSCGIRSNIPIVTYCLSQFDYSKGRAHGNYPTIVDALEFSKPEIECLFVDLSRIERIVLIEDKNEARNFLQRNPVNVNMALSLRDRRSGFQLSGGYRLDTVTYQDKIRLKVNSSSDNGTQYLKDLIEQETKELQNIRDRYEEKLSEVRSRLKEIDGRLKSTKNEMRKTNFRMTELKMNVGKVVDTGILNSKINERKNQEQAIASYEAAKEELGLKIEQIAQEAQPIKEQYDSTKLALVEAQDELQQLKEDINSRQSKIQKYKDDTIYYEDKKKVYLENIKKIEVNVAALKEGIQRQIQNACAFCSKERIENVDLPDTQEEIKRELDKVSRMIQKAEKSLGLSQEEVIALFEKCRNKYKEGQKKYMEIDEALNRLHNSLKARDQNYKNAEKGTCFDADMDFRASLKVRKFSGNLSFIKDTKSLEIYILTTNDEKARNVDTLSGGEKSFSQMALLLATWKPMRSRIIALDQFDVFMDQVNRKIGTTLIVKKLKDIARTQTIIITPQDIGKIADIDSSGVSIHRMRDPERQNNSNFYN

B1: Nse1 (natural protein, S. cerevisiae)
chain: MEVHEEQVSAPVTGDATAKYLLQYILSARGICHENALILALMRLETDASTLNTEWSIQQWVDKLNDYINAINVKLNLLGYKIIRINHGIGRNAVTLKAKQNFESFEDNTAIRAHNNDYAVLQSIVLPESNRFFVYVNLASTEETKLATRFNQNEIEFMKWAIEQFMISGETIVEGPALETSIIVKEVNRILVAATGDSNLAKWRKFSTFTVGSTNLFQFQELTATDIEDLLLRLCELKWFYRTQEGKFGIDLRCIAELEEYLTSMYNLNTCQNCHKLAIQGVRCGNESCREENEETGENSLSQIWHVDCFKHYITHVSKNCDRCGSSLITEGVYVI
modifications: BS3-crosslinked within the holo-complex
B2: Nse2 (Mms21) (natural protein, S. cerevisiae)
chain: ALNDNPIPKSVPLHPKSGKYFHNLHARDLSNIYQQCYKQIDETINQLVDSTSPSTIGIEEQVADITSTYKLLSTYESESNSFDEHIKDLKKNFKQSSDACPQIDLSTWDKYRTGELTAPKLSELYLNMPTPEPATMVNNTDTLKILKVLPYIWNDPTCVIPDLQNPADEDDLQIEGGKIELTCPITCKPYEAPLISRKCNHVFDRDGIQNYLQGYTTRDCPQAACSQVVSMRDFVRDPIMELRCKIAKMKESQEQDKRSSQAIDVL
modifications: BS3-crosslinked within the holo-complex
B3: Smc5 (Walker B mutant E1015Q) (natural protein, S. cerevisiae)
chain: MTSLIDLGRYVERTHHGEDTEPRSKRVKIAKPDLSSFQPGSIIKIRLQDFVTYTLTEFNLSPSLNMIIGPNGSGKSTFVCAVCLGLAGKPEYIGRSKKVEDFIKNGQDVSKIEITLKNSPNVTDIEYIDARDETIKITRIITRSKRRSDYLINDYQVSESVVKTLVAQLNIQLDNLCQFLSQERVEEFARLKSVKLLVETIRSIDASLLDVLDELRELQGNEQSLQKDLDFKKAKIVHLRQESDKLRKSVESLRDFQNKKGEIELHSQLLPYVKVKDHKEKLNIYKEEYERAKANLRAILKDKKPFANTKKTLENQVEELTEKCSLKTDEFLKAKEKINEIFEKLNTIRDEVIKKKNQNEYYRGRTKKLQATIISTKEDFLRSQEILAQTHLPEKSVFEDIDIKRKEIINKEGEIRDLISEIDAKANAINHEMRSIQRQAESKTKSLTTTDKIGILNQDQDLKEVRDAVLMVREHPEMKDKILEPPIMTVSAINAQFAAYLAQCVDYNTSKALTVVDSDSYKLFANPILDKFKVNLRELSSADTTPPVPAETVRDLGFEGYLSDFITGDKRVMKMLCQTSKIHTIPVSRRELTPAQIKKLITPRPNGKILFKRIIHGNRLVDIKQSAYGSKQVFPTDVSIKQTNFYQGSIMSNEQKIRIENEIINLKNEYNDRKSTLDALSNQKSGYRHELSELASKNDDINREAHQLNEIRKKYTMRKSTIETLREKLDQLKREARKDVSQKIKDIDDQIQQLLLKQRHLLSKMASSMKSLKNCQKELISTQILQFEAQNMDVSMNDVIGFFNEREADLKSQYEDKKKFVKEMRDTPEFQSWMREIRSYDQDTKEKLNKVAEKYEEEGNFNLSFVQDVLDKLESEIAMVNHDESAVTILDQVTAELRELEHTVPQQSKDLETIKAKLKEDHAVLEPKLDDIVSKISARFARLFNNVGSAGAVRLEKPKDYAEWKIEIMVKFRDNAPLKKLDSHTQSGGERAVSTVLYMIALQEFTSAPFRVVDQINQGMDSRNERIVHKAMVENACAENTSQYFLITPKLLTGLHYHEKMRIHCVMAGSWIPNPSEDPKMIHFGETSNYSFD
modifications: BS3-crosslinked within the holo-complex
B4: Nse4 (HALO-tagged) (natural protein, S. cerevisiae)
chain: MSSTVISRKRRNSTVTEPDSSGETRKQKKSRSDEKSSSSKDGDPQLEFKVLQGYRDLESEMHKGRAQVTRTGDIGVAMDNLNAVDSLFNKVIGIKNNGLFAHDARAMVSISELAQISVRNLKFDDSRSMVNLENIVNSLKRYMLKEHFKLNNIAENRNDLTLAADEQSAADQQEESDGDIDRTPDDNHTDKATSSFKATSMRHSYLQQFSHYNEFSQFNWFRIGALYNTISKNAPITDHLMGPLSIEKKPRVLTQRRRNNDQVGEKITAEKITQHSLNSTQQETTPEQVKKCFKKLSKKLGPEGSINLFKFIIDPNSFSRSIENLFYTSFLIKEGKLLMEHDEEGLPTIKIKQSISHTDSRSKEIERQRRRAAHQNHIIFQMDMPTWRKLIKKYNITSPFLD
modifications: BS3-crosslinked within the holo-complex

Experiment in all cases: cryo-EM structure
For the test “Nse4 (HALO-tagged)”, the target named is B4.
Test [1] addresses B3.
In test [2] the target is T1, Smc6 (Walker B mutant E1048Q).

With B1, the binding result (with Nse4 (HALO-tagged); in test [1]) was “binds” each time.

As to B2, the binding result in test [2] and in test [1] was “binds” in each case.

On to B3, for which, in test [2], the binding result is “binds”.

B4: the binding result in test [2] and in test [1] was “binds” throughout.
